The source of these data is patent publication US20230052646A1 (JJP BIOLOGICS SP Z O O, published 2023).

Experiment [1] addresses T1, membrane-bound full-length cynomolgus monkey HVEM on transiently transfected HEK293F cells (cynomolgus monkey (Macaca fascicularis)).
T1 construct: also called cynomolgus HVEM
T1 chain: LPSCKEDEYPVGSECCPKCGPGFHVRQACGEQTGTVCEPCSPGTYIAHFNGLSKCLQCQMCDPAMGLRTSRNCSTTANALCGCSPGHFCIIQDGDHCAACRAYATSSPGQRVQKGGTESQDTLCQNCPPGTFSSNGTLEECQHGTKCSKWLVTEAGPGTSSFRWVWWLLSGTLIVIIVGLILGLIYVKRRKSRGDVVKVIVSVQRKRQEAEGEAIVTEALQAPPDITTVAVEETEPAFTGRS
Nature of the experiment: FACS, undiluted hybridoma supernatant. The procedure: (§1) Generation of human ‘full-length’ HVEM-transfected HEK293F cells (clone no. 128) is described in Example 1a. […] After 72 hours, surface cynomolgus monkey HVEM expression on transfected cells was analysed by FACS analysis. To this end, stable human full-length HVEM-transfected HEK293F cells and transient cynomolgus monkey full-length HVEM-transfected HEK293F cells were put at 10×10⁶ cells/mL in ice-chilled phosphate-buffered saline containing 0.1% BSA (Sigma)/0.05% NaN₃ (PBS/BSA/NaN₃) supplemented with 50 μg/mL human IgGs (blocking of possible Fcγ receptors; Sigma) for 10 minutes at 4° C. Then, 10 μL/tube (i.e., 0.1×10⁶ cells) of these cells were incubated with 100 μL undiluted hybridoma supernatant/tube for 30 minutes at 4° C. Phycoerythrin (PE)-conjugated mouse anti-human HVEM antibody (clone eBioHVEM-122; eBioscience) at 1:20 was run as a positive control antibody. After extensive washing in PBS/BSA/NaN₃, cells were subsequently incubated with 1:200 diluted PE-conjugated goat anti-mouse IgG Fcγ-specific antibodies (Jackson ImmunoResearch) for 30 minutes at 4° C. After extensive washing in PBS/BSA/NaN₃, cells were fixed in 2% formaldehyde in PBS/BSA/NaN₃ for 30 minutes at 4° C. Binding of antibodies was measured using a flow cytometer (model FACSCalibur; BD Biosciences).

For experiment [2], the target named is T2, membrane-bound 'CRD1 truncated' human HVEM on transiently transfected HEK293F cells (human, UniProt Q92956 76-283).
T2 construct: aa 1-19 are a mouse Ig signal peptide and are left out; Starts with CRD2; also called human HVEM deleted for CRD1; CRD1 truncated HVEM
T2 sequence: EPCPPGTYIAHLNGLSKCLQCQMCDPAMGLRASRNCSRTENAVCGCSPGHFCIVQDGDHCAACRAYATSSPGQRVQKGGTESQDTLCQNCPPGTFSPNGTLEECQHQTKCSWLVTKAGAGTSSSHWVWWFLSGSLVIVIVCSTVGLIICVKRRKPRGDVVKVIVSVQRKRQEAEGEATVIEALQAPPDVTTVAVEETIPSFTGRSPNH
The experiment is described as follows: FACS, undiluted hybridoma supernatant, CRD1 truncated HVEM on HEK293F. The procedure: as §1, with “human” for “cynomolgus monkey”, “human ‘CRD1 truncated’” for “cynomolgus monkey full-length”

B1: mouse anti-human HVEM antibody no. 36H12 (antibody, mouse IgG1, V domains shown)
VH: EVQLQQSGAGLVKPGASVKLSCTASGFNIKDTYMHWVRQRPEQGLEWIGRIDPATANTKYDPKFQGKATLTTDTSSNTAYLQLSSLTSEDTAVYYCVTYGYDVSWFAYWGLGALVTVSA
VL: DVLMTQTPLSLPVSLGDQASISCRSSQSIVHSNGITYLEWYLQKPGQSPKLLIYKVSNRFSGVPDRFSGSGSGTDFTLKISRVEAEDLGVYYCFQGSHVPLTFGAGTKLELK
notes: mouse IgG1/kappa; also called 36H12 (mouse)
For B1, the binding result in experiment [1] and in experiment [2] was “no binding” throughout.
